Data reported in patent US10654896B2, “FoxP3-binding peptides and uses thereof” (FUNDACIÓN PARA LA INVESTIGACIÓN MÉDICA APLICADA, priority 2016, dated 2020).
Where a SMILES comes first, the peptide text is derived from it. Where no end group is shown, it is not given here. [ ]: non-standard residue; d: D form.

What was measured:
human FOXP3 (FOXP3-6His) = target: T1, human FOXP3 (FOXP3-6His) (Homo sapiens, UniProt Q9BZS1); test: Peptide binding to FOXP3 by surface plasmon resonance (SPR); settings: peptides 1-20 μM; ratio to p60 (SEQ ID NO: 1)
T1 construct: 6xHis (C); made in house; host or cells: E. coli BL21 (DE3)
T1 sequence (Q9BZS1 1-431): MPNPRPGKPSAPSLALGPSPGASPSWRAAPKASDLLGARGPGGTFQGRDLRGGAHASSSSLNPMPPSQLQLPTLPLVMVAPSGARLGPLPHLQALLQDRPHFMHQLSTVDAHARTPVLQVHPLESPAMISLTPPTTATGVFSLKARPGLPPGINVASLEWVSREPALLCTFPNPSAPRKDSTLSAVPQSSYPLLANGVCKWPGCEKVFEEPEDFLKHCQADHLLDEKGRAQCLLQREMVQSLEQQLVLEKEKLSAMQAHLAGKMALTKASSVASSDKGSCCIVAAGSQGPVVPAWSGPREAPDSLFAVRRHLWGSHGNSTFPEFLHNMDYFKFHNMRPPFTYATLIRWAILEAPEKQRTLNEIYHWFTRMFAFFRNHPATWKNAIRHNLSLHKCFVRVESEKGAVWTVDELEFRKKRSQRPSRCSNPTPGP
Excerpt: (§1) Plasmid pET20b FOXP3-His was generated to produce the human FOXP3 tagged with 6 histidines at the C terminus of the protein. Briefly, plasmid pDEST15-FOXP3 (provided by Dr. Casal, Madrid, Spain) was used as template to amplify FOXP3 by PCR using the primers Upper FOXP3 Ndel catatgcccaaccccaggc (SEQ ID NO: 55) and Lower FOXP3 […] (SEQ ID NO: 56). The resulting fragment was subcloned in pET20b at Ndel and NotI sites. pET45b His-Runx1 was obtained by PCR of activated human CD4 T cells obtained from healthy volunteers (after the signature of an informed consent) using the primers Upper Runx1 atgcgtatccccgtagatg (SEQ ID NO: 57) and Lower Runx1 […] (SEQ ID NO: 58) and the fragment was cloned in pcDNA3.1. Then, pET45b and pcDNA3.1-Runx1 were digested with BamHI and NotI and ligated to obtain pET45b-Runx1. Plasmids were used to transform BL21 cells (DE3; Novagen, Schwalbach, Germany) for the expression of the recombinant protein. The transformed BL21 cells were grown in LB medium at 37° C. (1 liter of final culture medium) (with ampicilin 0.1 mg/ml). Once the OD of the culture was between 0.5 and 1.0, IPTG (0.4 mM, final concentration) was added. Bacteria were then cultured overnight in agitation and centrifuged for 10 min at 8000 rpm. Cell pellet was then resuspended in 4 ml Tris-HCl 0.1 M and frozen at −80° C. Cell pellet was then thawed and incubated with lisozyme (25 KU) and a protease inhibitor cocktail for 15 min at 30° C. before cell lysis induced with a French-press. The resultant pool was then centrifuged during 20 min at 11.000 rpm). The recombinant protein was purified from the soluble fraction of French-press cell extracts by affinity chromatography (Histrap, Pharmacia) following manufacturer's instructions and using an FPLC platform (AKTA, Pharmacia). Plasmid pDEST15-FOXP3 encoding the fusion protein GST-FOXP3 (GST fused to the isoform A from human FOXP3 gene), was transformed into BL21 cells for the expression of the recombinant protein. GST-FOXP3 protein was purified from the soluble fraction of cell extracts obtained, as described above, by affinity chromatography (GSTrap; Amersham, Piscataway, N.J.) using a fast protein liquid chromatography platform (AKTA; Amersham) following manufacturer's instructions. The eluted proteins were desalted using Hitrap desalting columns (Pharmacia) and analyzed by SDS-PAGE using Coomassie blue (Bio-Safe Coomassie reagent; Bio-Rad, Hercules, Calif.) and by Western blot.
Screening of peptide binding to FOXP3 was performed by surface plasmon resonance (SPR) using ProteOn XPR36 (Bio-Rad, Hercules Calif., USA) optical biosensor. Recombinant protein FOXP3-6His was produced and purified from E. coli as disclosed in previous section and was immobilized covalently onto a GLM sensor chip (176-5012, Bio-Rad) using sulfo-NHS and EDC (Bio-Rad) coupling reagents and the manufacturer's instructions. After protein immobilization, chip surface was treated with ethanolamine to deactivate the excess of reactive esters.
Individual solutions of the peptides to be tested (1-20 μM) were injected by triplicate in running buffer (Phosphate buffered saline, 0.005% (v/v) Tween 20, pH 7.4) at a flow of 30 μl/min. The interspot signal (obtained in the chip surface not immobilized with protein) was used as reference. The results are summarized in Table 6 below as the ratio Peptide of the invention/p60.

[1] = target: T2, FOXP3/FOXP3 homodimerization (Homo sapiens, UniProt Q9BZS1); test: FOXP3/FOXP3 homodimerization inhibition (Alphascreen); assay type: biochemical; settings: for Dimerization inhibition % inhibition (100 μM): peptide 100 μM
T2 construct: made in house; host or cells: E. coli BL21 (DE3)
T2 sequence (Q9BZS1 1-431): T1 sequence (Q9BZS1 1-431)
Excerpt: as §1
(§2) It has been described that dimerization of FOXP3 is required for its function as a transcriptional regulator. Moreover, interaction between FOXP3 and the transcription factor Runx1, is crucially required for normal hematopoiesis including thymic T-cell development, but also for Treg suppressor activity (Reviewed in Lozano et al, Front Oncol. 2013, 3:294). Both activities are mediated by the intermediate region of Foxp3, which is the area of interaction between P60 and Foxp3. Thus, we studied the effect of P60 and their mutants on the FOXP3/Runx1 heterodimerization, as well as FOXP3/FOXP3 homodimerization by Alphascreen technology according to the manufacturer's instructions (Perkin Elmer, Benelux). AlphaScreen™ is a bead-based technology that is designed to measure the proximity of donor and acceptor beads conjugated to biomolecules of interest.
To measure FOXP3/FOXP3 homodimerization, recombinant Foxp3 was expressed with a Histine tag as disclosed in section (1) above, and captured by Nickel chelate Acceptor beads (Cat. AL108 Perkin Elmer) following manufacturer's instructions. The other version of recombinant FOXP3, expressing a GST tag (prepared as disclosed in section (1) above), was captured by Glutathione Donor beads (Perkin Elmer Cat. 6765300), following manufacturer's instructions. When the two proteins interacted together, the Donor and Acceptor beads come into proximity. Excitation of the Donor beads results in emission of light from the Acceptor beads. […]

[2] = target: T3, FOXP3/Runx1 heterodimerization (Homo sapiens, UniProt Q9BZS1); test: FOXP3/Runx1 heterodimerization inhibition (Alphascreen); assay type: biochemical; settings: for Foxp3-Runx1 Inhibition % inhibition (100 μM): peptide 100 μM
T3 construct: made in house; host or cells: E. coli BL21 (DE3)
T3 sequence (Q9BZS1 1-431): T1 sequence (Q9BZS1 1-431)
Excerpt: as §1, §2
To measure Foxp3-Runx1 interactions, Foxp3-GST and […] proteins were used.
Recombinant Runx1 expressed in E. Coli with a hexa-histidine tag (obtained as disclosed in section (1) above) was captured by nickel chelate acceptor beads following manufacturer's instructions, whereas the recombinant FOXP3 expressed with a GST tag was captured by glutathione donor beads (Perkin Elmer) following manufacturer's instructions. His-tagged Runx1 (46 nM final concentration) was incubated with 100 nM GST-FOXP3 and the peptides to be tested (added at different concentrations from 1 to 100 μM) for 1 h at room temperature. […]

[3] = tested on: murine Treg (CD25+ T cells); test: In vitro Treg suppression assay ([3H]-thymidine, anti-CD3); assay type: cell-based, BALB/c mice
Description: Spleen was harvested from BALB/c mice (Harlan Laboratories) and homogenized with a 1-ml syringe through a 100-μm cell strainer into a 50-ml conical tube and rinsed two times with PBS (Calcium free) to recover all cells. Cell homogenate was centrifuged at 300×g for 10 min and resuspended homogenate in 1 ml ACK Lysis buffer solution per spleen. Gently swirled for 2 min and then the reaction was quenched by adding 12 ml of PBS.
Cells were centrifuged at 300×g for 10 min and purification of CD25− and CD25+ cells was carried out using magnetic beads (Miltenyi, CD25 microbead kit MOUSE, Ref 130-091-072)), following manufacturer's instructions. After labelling the cells, they were purified using Automacs-Pro device following manufacturer's instructions. Negative fraction corresponded to CD25− cells, which was used as effector Tconv cells. Positive fraction corresponded to CD25+ T cells that was used as Treg cells. Flow cytometry using anti-CD25-APC labeled and anti-CD4-FITC labelled antibodies was used to confirm the purity of isolated cells. Foxp3 expression was analyzed using the anti-Foxp3 staining antibody labelled with APC according to manufacturer's instructions (eBioscience). Purified cells were washed, resuspended in culture medium and diluted in T-cell culture medium (RPMI 1640, supplemented with 10% Fetal bovine serum and antibiotics) at a concentration of 2×10^5/ml (for Tregs) and 2×10^6/ml (for Tconv), for the assay (See below)
The first in vitro assays to measure regulatory T-cell (Treg) function were described by two groups over a decade ago. […] With this knowledge, it was shown that CD4+CD25+ T cells could potently suppress the proliferation of activated CD4+CD25− and CD8+ T cells when the populations were cocultured in vitro. The following protocol describes a basic type of in vitro Treg suppression assay where Treg function is measured in the absence of antigen-presenting cells (APCs). In this protocol, activation is mediated by anti-CD3 antibodies and includes only two cell types, the target Tconv and Tregs. In this protocol, the experiment is setup in a 96-well round-bottom plate in a total volume of 200 μl. All reagents are prepared at four times their desired final concentration and added to assay in 50 μl such that the total volume is 200 μl, thus obtaining the desired final concentration of reactives. Purified Tregs and Tconv prepared as described above were diluted and adjusted in T-cell culture medium to 2×10^5/ml and 2×10^6/ml, respectively. In round-bottom 96-well plate, Tregs and Tconv were added in 50 μl of culture media each (RPMI 1640, supplemented with 10% Fetal bovine serum, and antibiotics). Anti-CD3 antibody was added in 50 μl (final concentration will be 2.5 μg/ml) as a stimulus to induce T cell proliferation. 50 μL of each one of the peptides to be tested were added in the corresponding wells at a concentration of 100 μM and those which provided the best results were tested again at lower concentrations to determine the IC50 value. The final volume was 200 μl in all wells. Tconv alone, Tconv plus anti-CD3, Tconv+anti-CD3+ Treg or Tconv+anti-CD3+Treg+peptides were tested by quadruplicate. Tconv plus anti-CD3 with no Treg was used to determine maximum proliferation of Tconv whereas Tconv+anti-CD3+ Treg was used to determine Treg inhibition. Plates were incubated at 37° C., 5% CO2 for 72 h and then pulsed with 0.1 μCi [^3H]-thymidine (in 25 μl of culture medium per well). After 8 h of incubation, cell cultures were harvested with a cell harvester (Perkin Elmer) and using unifilter plates. Plates were then dried at 50° C., and scintillation reagent (25 μl)(Microscint, Perkin Elmer) was added to each well. Counts per minute (cpm) were determined with a direct beta counter (TopCount, Perkin Elmer).
The results of in vitro Treg suppression assays are most commonly reported as cpm when [^3H]-thymidine is incorporated into proliferating cells. […]

CT26 tumor cells = test: Anti-tumor vaccination experiment (AH1 in IFA), CT26 challenge; assay type: in vivo, BALB/c; settings: 10 nanomol/mice i.p. daily during 10 days after AH1/IFA; day 30 after injection of CT26
Description: For anti-tumor vaccination experiments, BALB/c animals immunized with 50 nanomol/mice of peptide AH1 emulsified in incomplete Freund adjuvant (IFA) (Casares et al., 2010, supra), were treated intraperitoneally with 10 nanomol/mice of the indicated Treg inhibitory peptide SEQ ID NO: 51 of the invention or with saline daily during 10 days. At day 10, mice were injected s.c. with 10^6 CT26 tumor cells. Tumor size was monitored twice a week with a calliper and it was expressed according to the formula V=(length×width2)/2. Mice were sacrificed when tumor size reached a volume greater than 4 cm^3.

| Compound | Binding to Foxp3 Ratio binding Peptide/p60 (fold change) (human FOXP3 (FOXP3-6His)) | Foxp3-Runx1 Inhibition % inhibition (100 μM) [2] | Dimerization inhibition % inhibition (100 μM) [1] | further results |
| --- | --- | --- | --- | --- |
| 2 (RDFQSFRKMWPFFAM-NH2; not fully specified (N-terminus)) [compound 2] | 2.4 fold change |  |  | Dimerization inhibition % inhibition (20 μM) ([1]; peptide 20 μM): 80 (20 μM) % |
| 5 (RAFQSFRKMWPFFAM) [compound 5] | 4.1 fold change | 76.0% | 74.3% |  |
| CSCC[C@H](NC(=O)[C@H](C)NC(=O)[C@H](Cc1ccccc1)NC(=O)[C@H](Cc1ccccc1)NC(=O)[C@@H]1CCCN1C(=O)[C@H](Cc1c[nH]c2ccccc12)NC(=O)[C@H](CCSC)NC(=O)[C@H](CCCCN)NC(=O)[C@H](CCCNC(=N)N)NC(=O)[C@H](Cc1ccccc1)NC(=O)[C@H](CO)NC(=O)[C@H](CCC(N)=O)NC(=O)[C@H](Cc1ccccc1)NC(=O)[C@@H](C)NC(=O)[C@H](CCCNC(=N)N)NC(=O)CNC(C)=O)C(N)=O [compound 14] (Ac-GR[dA]FQSFRKMWPFFAM-NH2; C-terminus assumed) | 3.6 fold change |  |  | inhibition at 2.5 µM ([2]; read-out: Foxp3-Runx1 Inhibition % inhibition (2.5 μM)): 80%; inhibition at 20 µM ([1]; read-out: Dimerization inhibition % inhibition (20 μM)): 90% |
| RAFQAFRKMWPFFAM (cyclo(R[dA]FQAFRKMWPFFAM); also: R1 and R2 form a birradical linker which is -C(=O)-) [SEQ ID NO: 51, head-to-tail cyclic peptide] |  |  |  | effect on growth of CT26 colon cancer tumor (CT26 tumor cells): prevents the growth of tumor |

Further lines, with some results ahead:

| Binding to Foxp3 Ratio binding Peptide/p60 (fold change) (human FOXP3 (FOXP3-6His)) | Foxp3-Runx1 Inhibition % inhibition (100 μM) [2] | Dimerization inhibition % inhibition (100 μM) [1] | Compound | further results |
| --- | --- | --- | --- | --- |
| 1.4 fold change |  |  | 9 (RWFQSFRKMWPFFAM) [compound 9] | Treg inhibition - % inhibition (100 μM) ([3]; peptide 100 μM): 210.0% |
| 1.1 fold change | 74.7% | 89.0% | 19 (RDFQAFRKMWPFFAM) [compound 19] |  |
| 1.1 fold change | 73.9% | 81.3% | 30 (RDFQSFRKMWAFFAM) [compound 30] |  |
| 8.0 fold change |  |  | Ac-GRAFQAFRKMWAFFAM-NH2 (C-terminus assumed) [compound 45] | IC50 [3]: 3000 nM |
